{"source": "patent US20020127594A1", "about": "(Takeda / Millennium, published 2002)", "binders": {"B1": {"name": "Don-1 EGF domain-containing fusion polypeptide (EGF domain and flanking amino acids 85-154 of murine Don-1, C-terminal Flag epitope tag), secreted by … (ligand, not shown: small tags and cut ends)", "chain": "LHVNSVSTTLSSWSGHARKCNETAKSYCVNGGVCYYIEGINQLSCKCPNGFFGQRCLEKLPLRLYMPDPK"}}, "target": "p185 (erbB2), 185 kDa receptor-type tyrosine kinase of the EGFR family, in MDA-MB453 breast adenocarcinoma … (UniProt P04626 23-1255, limits assumed)", "assay": "cell-based or functional assay"}
{"binder": "B1", "values": [{"measurement": "phosphorylation of the 185 kDa protein in MDA-MB453 cells (antiphosphotyrosine Western blot)", "value": "~10", "unit": "fold"}]}
